Test system: T1, Bli1904II restriction endonuclease (Bacillus licheniformis)
T1 sequence: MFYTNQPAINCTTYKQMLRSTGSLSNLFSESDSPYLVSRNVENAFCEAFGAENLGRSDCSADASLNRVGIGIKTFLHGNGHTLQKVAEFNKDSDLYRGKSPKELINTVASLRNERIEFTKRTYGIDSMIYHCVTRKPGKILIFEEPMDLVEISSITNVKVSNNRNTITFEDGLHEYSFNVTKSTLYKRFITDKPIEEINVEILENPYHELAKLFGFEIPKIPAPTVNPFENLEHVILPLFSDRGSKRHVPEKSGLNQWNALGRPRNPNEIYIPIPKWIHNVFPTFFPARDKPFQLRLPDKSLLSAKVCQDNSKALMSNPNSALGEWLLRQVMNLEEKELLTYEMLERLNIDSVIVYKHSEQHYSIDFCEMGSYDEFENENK
Assay: cell_activity

| Substance | activity (transformants per ug DNA) (methylated by M.Bli1904II at GCNGC (C5-cytosine type, position not stated), methylated plasmid not restricted in SJ1904, 7.2e3 in deletion strain MDT269) | activity (transformants per ug DNA) (restriction of unmethylated plasmid in SJ1904, 6.4e3 in Bli1904II deletion strain MDT269, site inferred from cognate methylase) |
| --- | --- | --- |
| GCNGC (double strand) [pCJ791 plasmid GCNGC sites, M.Bli1904II-methylated] | 16000 |  |
| GCNGC (double strand) [pCJ791 plasmid GCNGC sites, unmethylated] |  | 17 |

Reference: patent US20100055739
